What all share (conditions): both partners purified
The target of assay [1] is T1, Pfs48/45 full-length ectodomain (Plasmodium falciparum, UniProt Q8I6T1). The assay can be described thus: negative stain electron microscopy.
Assay [2] deals with Pfs48/45-D2 + 3 (central and C-terminal domains) (Plasmodium falciparum, UniProt Q8I6T1). The assay can be described thus: crystal structure.
The target of assay [3] is T1, Pfs48/45 full-length ectodomain. The assay can be described thus: SPR.
In assay [4] the target is Pfs48/45-D3 (C-terminal 6-cys domain of Pfs48/45) (Plasmodium falciparum 3D7 …, UniProt Q8I6T1). The assay can be described thus: SPR.
Chain of Pfs48/45-D3 (C-terminal 6-cys domain of Pfs48/45) (Q8I6T1 291-428): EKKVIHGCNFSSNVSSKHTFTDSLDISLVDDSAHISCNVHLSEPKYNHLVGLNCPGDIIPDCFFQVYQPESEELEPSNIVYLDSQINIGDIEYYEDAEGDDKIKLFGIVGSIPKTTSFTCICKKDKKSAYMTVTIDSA

T1 sequence (Q8I6T1 27-427): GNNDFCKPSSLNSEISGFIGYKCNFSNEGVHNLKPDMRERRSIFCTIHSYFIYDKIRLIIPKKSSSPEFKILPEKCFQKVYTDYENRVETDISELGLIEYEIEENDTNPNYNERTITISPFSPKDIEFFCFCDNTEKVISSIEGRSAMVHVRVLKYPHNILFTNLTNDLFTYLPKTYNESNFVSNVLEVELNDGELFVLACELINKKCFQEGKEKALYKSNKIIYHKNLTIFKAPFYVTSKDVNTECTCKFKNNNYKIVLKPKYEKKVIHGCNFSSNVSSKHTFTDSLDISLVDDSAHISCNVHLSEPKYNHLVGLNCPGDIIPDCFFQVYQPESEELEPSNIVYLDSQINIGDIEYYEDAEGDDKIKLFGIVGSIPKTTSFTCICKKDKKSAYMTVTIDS
Chain of Pfs48/45-D2 + 3 (central and C-terminal domains) (Q8I6T1 159-428): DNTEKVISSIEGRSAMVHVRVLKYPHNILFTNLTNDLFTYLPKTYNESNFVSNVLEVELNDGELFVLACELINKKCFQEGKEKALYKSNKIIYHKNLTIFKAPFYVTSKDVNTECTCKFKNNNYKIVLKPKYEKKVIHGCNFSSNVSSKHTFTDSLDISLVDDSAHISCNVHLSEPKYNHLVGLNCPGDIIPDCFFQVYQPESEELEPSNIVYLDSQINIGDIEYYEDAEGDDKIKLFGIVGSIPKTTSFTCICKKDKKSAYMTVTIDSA

B1: 10D8 Fab fragment (Fab, V domains shown)
VH: EVMLVESGGDLVKPGGSLKVSCAASGFTFSNYAMSWVRQTPEKRLEWVATISSGASYTHYPDSVKGRFTISRDNAKNTLYLQMSSLRSEDTAMYYCGRQVNRHDRALDAMDYWGQGTSVTVSP
VL: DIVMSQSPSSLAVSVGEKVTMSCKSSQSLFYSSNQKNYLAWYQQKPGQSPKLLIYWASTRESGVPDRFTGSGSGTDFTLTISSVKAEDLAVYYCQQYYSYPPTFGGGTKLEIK
notes: source: hybridoma cell line, purified using protein A/G, ficin cleaved to Fab
For the molecule B1, the binding result in assay [1] and in assay [2] was “binds” each time.

B2: 10D8 monoclonal antibody (antibody, V domains shown)
VH: EVMLVESGGDLVKPGGSLKVSCAASGFTFSNYAMSWVRQTPEKRLEWVATISSGASYTHYPDSVKGRFTISRDNAKNTLYLQMSSLRSEDTAMYYCGRQVNRHDRALDAMDYWGQGTSVTVSP
VL: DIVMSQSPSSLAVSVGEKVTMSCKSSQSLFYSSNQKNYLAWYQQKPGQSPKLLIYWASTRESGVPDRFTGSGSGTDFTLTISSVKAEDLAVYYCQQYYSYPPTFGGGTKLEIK
notes: source: hybridoma cell line, purified using protein A/G
As for B2, the binding result in assay [3] was “binds”.

B3: 32F3 monoclonal antibody (antibody, V domains shown)
VH: DVKLVESGGGLVKLGGSLKLSCAASGFTFSSYYMSWVRQTPEKRLELVAAINNNGGSTYYPDTVKGRFTISRDNAKNTLNLQMNSLKSEDTALYYCTRQHYGNLYFFDYWGQGTTLTVSS
VL: QIVLSQSPAILSASPGEKVTMTCRASSSVTYIHWYQQKPGSSPKPWIQATSSLASGVPARFSGSGSGTSYSLSISRVEAEDAATYYCQQWSSNPLTFGAGTKLELK
notes: as for B2
Consider B3, for which the Kd in assay [4] came out at 5.2 nM.
